Test results as given in publication PMC4477937.
Where two headings read alike, the source gives them in different places.

Key:
TNF-α (Homo sapiens) [1] = target: TNF-α (Homo sapiens) (UniProt P01375); conditions: cited from earlier work
TGF-β2 (Homo sapiens) [2] = target: TGF-β2 (Homo sapiens) (UniProt P61812); conditions: cited from earlier work
TGF-β1 (Homo sapiens) [3] = target: TGF-β1 (Homo sapiens) (UniProt P01137); conditions: cited from earlier work
TNF-α (Homo sapiens) [4] = target: TNF-α (Homo sapiens) (UniProt P01375); conditions: cited from earlier work; remark: listed apart in the source
TGF-β2 (Homo sapiens) [5] = target: TGF-β2 (Homo sapiens) (UniProt P61812); conditions: cited from earlier work; remark: listed apart in the source
TGF-β1 (Homo sapiens) [6] = target: TGF-β1 (Homo sapiens) (UniProt P01137); conditions: cited from earlier work; remark: listed apart in the source
[7] = target: lipoprotein receptors (on SH-SY5Y cells) (human (endogenous in SH-SY5Y)); assay: flow cytometry on cells; SH-SY5Y cells detached with EDTA, in Hank's binding buffer, steps of 30 min at 4°C: RAP (8 μM) or buffer alone, then α2M (100 nM), rabbit anti-α2M, anti-rabbit IgG-FITC; viable cells gated by propidium iodide; α2M preparations stored at 4°C or -20°C for 10 days

glutathione-S-transferase-RAP (receptor-associated protein), sequence (P30533 35-357): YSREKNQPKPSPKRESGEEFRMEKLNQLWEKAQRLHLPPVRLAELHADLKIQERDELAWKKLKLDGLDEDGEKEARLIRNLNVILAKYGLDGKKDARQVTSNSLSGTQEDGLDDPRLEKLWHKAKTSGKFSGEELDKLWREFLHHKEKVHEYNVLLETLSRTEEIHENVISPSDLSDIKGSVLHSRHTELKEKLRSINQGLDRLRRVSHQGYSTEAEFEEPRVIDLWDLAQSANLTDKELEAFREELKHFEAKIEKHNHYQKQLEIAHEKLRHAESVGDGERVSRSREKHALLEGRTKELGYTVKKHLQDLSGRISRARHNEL
alpha-2-macroglobulin (transformed, α2M*), sequence (P01023 24-1474): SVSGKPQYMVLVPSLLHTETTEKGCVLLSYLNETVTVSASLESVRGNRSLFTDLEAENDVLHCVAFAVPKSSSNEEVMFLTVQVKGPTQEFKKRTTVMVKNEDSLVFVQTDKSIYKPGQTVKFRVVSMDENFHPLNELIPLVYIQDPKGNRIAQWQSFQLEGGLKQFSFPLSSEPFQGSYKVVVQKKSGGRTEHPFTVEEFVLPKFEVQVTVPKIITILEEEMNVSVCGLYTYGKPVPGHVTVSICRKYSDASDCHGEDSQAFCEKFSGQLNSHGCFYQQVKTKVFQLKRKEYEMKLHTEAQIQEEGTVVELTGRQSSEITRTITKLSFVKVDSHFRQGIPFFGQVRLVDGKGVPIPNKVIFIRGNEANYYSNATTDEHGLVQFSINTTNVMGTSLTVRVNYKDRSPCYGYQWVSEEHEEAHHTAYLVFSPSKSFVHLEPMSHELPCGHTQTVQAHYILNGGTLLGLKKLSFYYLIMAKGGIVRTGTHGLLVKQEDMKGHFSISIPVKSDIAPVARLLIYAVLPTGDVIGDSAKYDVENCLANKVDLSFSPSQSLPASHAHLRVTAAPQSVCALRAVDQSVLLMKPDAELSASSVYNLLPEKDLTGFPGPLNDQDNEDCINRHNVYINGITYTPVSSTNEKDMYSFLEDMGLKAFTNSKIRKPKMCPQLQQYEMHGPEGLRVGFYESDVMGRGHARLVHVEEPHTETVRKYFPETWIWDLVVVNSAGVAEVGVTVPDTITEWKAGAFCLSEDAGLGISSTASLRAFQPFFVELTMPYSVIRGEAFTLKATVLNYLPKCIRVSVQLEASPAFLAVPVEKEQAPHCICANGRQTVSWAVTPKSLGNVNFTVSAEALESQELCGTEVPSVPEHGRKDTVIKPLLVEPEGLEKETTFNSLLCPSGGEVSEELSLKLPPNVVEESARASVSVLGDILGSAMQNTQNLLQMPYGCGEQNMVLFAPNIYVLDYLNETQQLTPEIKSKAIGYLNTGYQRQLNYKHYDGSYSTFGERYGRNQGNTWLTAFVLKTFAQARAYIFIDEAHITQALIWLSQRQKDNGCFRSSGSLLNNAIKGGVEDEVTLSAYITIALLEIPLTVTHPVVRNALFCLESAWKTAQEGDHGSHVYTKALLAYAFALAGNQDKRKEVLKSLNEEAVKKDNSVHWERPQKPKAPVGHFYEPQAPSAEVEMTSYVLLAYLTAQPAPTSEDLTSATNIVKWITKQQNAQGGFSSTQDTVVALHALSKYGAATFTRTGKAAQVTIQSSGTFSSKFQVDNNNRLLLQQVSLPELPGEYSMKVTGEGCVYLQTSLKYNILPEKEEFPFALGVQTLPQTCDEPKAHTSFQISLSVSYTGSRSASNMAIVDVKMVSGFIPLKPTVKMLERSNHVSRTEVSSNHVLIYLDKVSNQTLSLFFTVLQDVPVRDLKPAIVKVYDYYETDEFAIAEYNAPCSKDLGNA
alpha-2-macroglobulin (native), sequence (P01023 24-1474): as above
TNF-α (Homo sapiens), sequence (P01375 77-233): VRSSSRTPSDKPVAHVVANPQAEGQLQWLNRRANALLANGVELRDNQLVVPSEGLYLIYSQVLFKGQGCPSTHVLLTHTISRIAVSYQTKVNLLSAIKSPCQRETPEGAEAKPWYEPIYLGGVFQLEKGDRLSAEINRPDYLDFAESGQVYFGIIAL
TGF-β2 (Homo sapiens), sequence (P61812 303-414): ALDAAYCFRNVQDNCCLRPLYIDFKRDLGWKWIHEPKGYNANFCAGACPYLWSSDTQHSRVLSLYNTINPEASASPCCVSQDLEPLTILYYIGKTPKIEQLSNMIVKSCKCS
TGF-β1 (Homo sapiens), sequence (P01137 279-390): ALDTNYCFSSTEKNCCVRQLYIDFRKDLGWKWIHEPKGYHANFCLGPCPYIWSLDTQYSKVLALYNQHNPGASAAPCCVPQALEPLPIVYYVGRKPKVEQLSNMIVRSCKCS

For “alpha-2-macroglobulin (transformed, α2M*) (from UniProt P01023)”, which Kd (TNF-α (Homo sapiens) [1]) is on record?
The Kd was over 750 nM.

And the Kd (TGF-β2 (Homo sapiens) [2])?
The Kd was 13 nM.

What about the Kd (TGF-β1 (Homo sapiens) [3]) of the same substance?
The Kd was 80 nM.

With “alpha-2-macroglobulin (native) (from UniProt P01023)” as the substance, how does the Kd (TNF-α (Homo sapiens) [4]) read?
The Kd was over 1270 nM.

And the Kd (TGF-β2 (Homo sapiens) [5])?
Its Kd is 11 nM.

And the Kd (TGF-β1 (Homo sapiens) [6])?
The Kd was 330 nM.

Which results are given for “glutathione-S-transferase-RAP (receptor-associated protein) (from UniProt P30533 35-357) (natural protein)”?
percent of the cell surface binding of the frozen α2M preparations inhibited by RAP [7]: 20 to 50%; percent of the cell surface binding of α2M inhibited by RAP (α2M in PBS/Az at -20°C; α2M in phosphate buffer with 100 mM NaCl at -20°C after rapid freezing) [7]: 20%
